B1: library; numbered along this chain (parent)
chain: MRKPRAAVGSGHRKQAASQEGRQKHAKNNSQAKPSACDGLARQPEEVVLQASVSSYHLFRDVAEVTAFRGSLLSWYDQEKRDLPWRRRAEDEMDLDRRAYAVWVSEVMLQQTQVATVINYYTGWMQKWPTLQDLASASLEEVNQLWAGLGYYSRGRRLQEGARKVVEELGGHMPRTAETLQQLLPGVGRYTAGAIASIAFGQATGVVDGNVARVLCRVRAIGADPSSTLVSQQLWGLAQQLVDPARPGDFNQAAMELGATVCTPQRPLCSQCPVESLCRARQRVEQEQLLASGSLSGSPDVEECAPNTGQCHLCLPPSEPWDQTLGVVNFPRKASRKPPREESSATCVLEQPGALGAQILLVQRPNSGLLAGLWEFPSVTWEPSEQLQRKALLQELQRWAGPLPATHLRHLGEVVHTFSHIKLTYQVYGLALEGQTPVTTVPPGARWLTQEEFHTAAVSTAMKKVFRVYQGQQPGTCMGSKRSQVSSPCSRKKPRMGQQVLDNFFRSHISTDAHSLNSAAQ

Variants of: B1
Test: 8OG:A repair function score (normalized; synonymous = 0, nonsense = -1) (normalized log-likelihood score); higher = more repair activity (WT-like)
Conditions: with 8OG:A DNA repair reporter (GFP) in HEK-293 MUTYH KO cells
How it was run: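 After 72 h, viable mCherry+ cells were split into GFP+ (repair) and GFP− bins in three replicates per tile. These cells were MUTYH knockout HEK-293 cells holding lentiviral MUTYH cDNA NNN codon-scan libraries, kept in 10 pg/ml doxycycline and co-transfected with mCherry plus an 8OG:A GFP repair reporter. Sequencing of tile amplicons gave per-tile Rosace fitness scores, normalized into a repair function score anchored on synonymous and nonsense distributions. Synonymous medians were fixed at 0, nonsense at -1, and variants under 300 counts per million at the start were removed.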
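Also: cells sorted at 72 h after reporter transfection.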

Variant | 8OG:A repair function score
A345F | -0.165
G326I | -0.411
G326L | -0.422
V261L | -0.0765
R213E | -1.03
R213V | -1.01
R213Q | -1.02
R213C | -1.03
V465I | -0.0425
V465R | -1.13
W399G | -0.541
W399N | -0.463
G161C | -0.293
G161P | -0.919
G161N | -0.325
G401H | -0.241
G401A | -0.317
E319N | -0.0746
V301R | -0.275
V301D | -0.39
V301E | -0.439

Variant | 8OG:A repair function score
A245D | 0.223
K127P | -0.884
K422E | -0.492
L432W | 0.0604
L432R | -0.334
L432E | -0.542
Q498L | -0.00389
T176L | -0.174
Q473P | -0.0268
E92Q | -0.0495
K493V | -0.0351
G309F | 0.0213
G309P | -0.0923
Q202R | -0.0857
F505T | 0.0174
L430G | -0.304
L430E | -0.36
Q232M | -0.355
Q232G | 0.139
L411P | -0.665
D322V | 0.0232

Variant | 8OG:A repair function score
D322G | -0.115
A334R | 0.0363
A196P | -1.11
P442W | -0.205
P442N | -0.426
P442G | -0.171
A6C | -0.117
A6Q | 0.0112
A6D | -0.15
S318H | -0.0534
S318I | 0.00356
G236S | 0.254
R86F | -1.75
R87D | -0.0278
A67V | -0.000602
R42L | -0.0705
R42W | 0.0271
R219S | -0.772
L215K | -1.02
S227D | 0.49
A63S | 0.00279

Variant | 8OG:A repair function score
N119Y | -0.361
A520T | -0.000144
S276D | 0.00885
E106N | -1.72
L516E | 0.0196
G123C | 0.124
T424V | -0.09
T424D | -0.256
F68M | -0.0967
Y151S | -1.29
Y151M | -0.45
V441P | -0.0374
L360Y | -0.447
L360T | -1.26
R446C | -0.342
G222D | -0.733
T112K | -1.01
C311A | -0.544
C311G | -0.505
L393T | -0.383
L393R | 0.00361
